According to the DeepSol protein solubility set:

Assay: soluble on expression in E. coli; label from the status in PepcDB or PDB records

Soluble on expression in E. coli, not soluble:
MGSDKIHHHHHHMAQRVGPTRRGVDGTPVEPLSIKHPNAAGIDIGGASHYVAVPPDRVGKGEPAVREFGPHTEDLVAVANWLCACRIDTVALESTGVYWIALYELLQARGFEVWLVDAKSVRHVKARKSDVLDCQWLQQLHSFGLLSQAHRPDEQVCALREMSRLRDITIDERARHTQRMQKALTQMNVQLTNVITDITGETGMNIIRAIVAGGATAWPSRS
MGSDKIHHHHHHMARARTQYKCRSCGYISASYLGRCPNCGAWNQFEKESQEVRQTSTKATPSRLMASVGAKEAVKMSTVKAEKEERVLTKSSELNRVLGGGIVPGSLVLIGGDPGIGKSTLMLQIMSELAEKYKVLYVSGEESASQIKLRADRLGLGQSPMLLYPESNMEHIRDQIDDVKPDFVVIDSIQTMNEPSLDSMVGSASQVREVTAELMKIAKLDQVTVFVIGHVTKEGSIAGPKILEHMVDTVLYFEGDEHHAYRILHSVKNRFGAANEIGMFEMKTEGLAEVTNPSAVFLDERLPDSTGSAVVVSLEGTRPIL
MGSDKIHHHHHHMARIPRFALVERDSSNHCTWRAHDFEHVLEEAGATDKFLELLGRYKEKYGVEINSYCLMGTHPHVTCTTRRDQEQFSRFWQVVNGQFARWYNKRRERRGQVVMERMRSPRIQAEGAHQLTVMRYGDLNPVRAGLVKSPKDWKWSSYRHYAFGEPDPLIDDAPEYLALGKTGPQRRKAYQALFALPLSESLRTRRIDLVEYPFVGDAHWVMHRLDVAGLSPPD
MGSDKIHHHHHHMARNAKLDRLLTLVKALGESAEGLTLDEMAEVIGANRRTAERLRDLILVHFDLEEGVDDRHKRFRIPGTLPSPFIQPNVAEIAALKSLADTAHKAGSAQAPLLESLVGKVQAGLRREVKSRMAPDLEPLVRLQRHHVPAGPMIEHAPETVAQVQGAMMAGMCLEFDYLADGAAEPKWRRVIPVGLIHGPATYLIGKIPGRDLEPAPYRLDRIIAARVSNQPGAAGEDWDLDQWMSASFGIWREEGYEIVLRVAHESAERARKWRFHPQQMIEQDGEELIVRFHSGGLREIAEHLFTWGGEVRIEGPEELREMMRERLSAAGRAVV
MGSDKIHHHHHHMATENPPIYMVGGSKGGVGKSFVTLALVDYLRRMEVNVVLVETDTSNPDVMKAVHDEIECGSCDLDDVSGWIDFVNFCDLHPDATVVVNTAARSQAGVAQYGGTLASTLDELARRLVVLWVINRQRDSLELLLRFGATFPNAITHVVRNGYFGSPDKFTLYRDSQLRNAVEAQGQSLDFPDLADRVADELRSQRLSVSKAAEMMHMGERAELLRWRAVCGTMFARVTPHA
MGSDKIHHHHHHMATYNYPEFGAGLWHFANYIDRYAVDGYGPALSTIDQINAAKEVGELSYVDLPYPFTPGVTLSEVKDALKDAGLKAIGITPEIYLQKWSRGAFTNPDPAARAAAFELMHESAGIVRELGANYVKVWPGQDGWDYPFQVSHKNLWKLAVDGMRDLAGANPDVKFAIEYKPREPRVKMTWDSAARTLLGIEDIGLDNVGVLLDFGHALYGGESPADSAQLIIDRGRLFGMDVNDNLRGWDDDLVVGTVHMTEIFEFFYVLKINNWQGVWQLDQFPFRENHVEAAQLSIRFLKHIYRALDKLDIPALQAAQEAQNPLQAQRIVQDALLSSITVSE
MGSDKIHHHHHHMAVKTIRTLAHFITACSEIKVKDDHTLFYRGHASDIYTPFPTIFRNQNDDPKKSRYIESEGELFHNLVTQCPEEFKDCTSTFDFLVKMQHYGLPTRLLDITSNPLVALYFACCTLIPESTKDKNAKNGQVLVYQVPNEEIKYYNSDTVSVISNLARVNTSFNFTDEEDRERFLHSIQAEKPYFKPYIKEAHLHSVICVKPKLDNRRIVKQSGAFFLFGMGKNKTDSIRISDKYRPDIKHIDIPKSSKETLLRELATLSISEATLFPEIDNVARFLKKEVKIKSLVVEEIEEEKLGNEISVAYQEFILNSLVLNTDLLEQIQHNSADRAMLGLYPELLQKAIIESQENYNEIALKLLVEEDSADKFAKNIFSKLKHKLEELS
MGSDKIHHHHHHMAVRQDTIWERFLSPVMRLLIDEEGLRRYADSIDWEKEGDRFRRDDVIIPSYYSSQNFHGITGGYLTYNAAVSYDPITQYVVPPNETIVRQALIDAVKVKPRRILDLGCGTGSTTLMLKRAFPEAEVIGLDLSPYMLVRAEDKARNSGLEIVWRHGNAEKTSFRDATFDLVTASLLFHETPNEVSLAILQESFRLLVTGGQVLILDGNQKTLRQLEWLNDVFEEPYIREYAAGSIEANMGAAGFEAVRSQDVWWINQVTGGVKPIATENVRRYTPTSVDNNDLEGLGSPAFGIIA
MGSDKIHHHHHHMAVSLWQQCIGRLQDELSAQQFSMWIRPLQAEMEGDTLVLYAPNRFVLDWVRDKYINSINQFFTEQLGDNAPKLRFDIGSRPSAKPQAPAPAAVKAAAPQPKPGNSFVSQPEPAVSNHRSNINPTYQFDNFVEGKSNQLGKAAALQVAENPGGAYNPLFLYGGTGLGKTHLLHAVGNGIIKNNPNAKVVYMHSERFVQDMVKALQNNAIEEFKRYYRSVDALFIDDIQFFANKDRSQEEFFHTFNALLEGNHQIILTSDRYPKEIDGVEDRLKSRFGWGLTVAIEPPELETRVAILMRKAQESGINLPDEVAFFIAKRLRSNVRELEGALNRVIANANFTGRPITIDFVREALRDLLALQEKLVTIDNIQKTVAEYYKIKMADMLSKRRSRSVARPRQMAMALSKELTNQSLPEIGDAFGGRDHTTVLHACRKIAQLREESHDIKEDYANLIRTLSS
MGSDKIHHHHHHMAYPNGKLSEEKVFKDPVHRYVHVRDKLIWDLIGTREFQRLRRIKQLGTTYLTFHGAEHSRFNHSLGVYEIVRRMVDDVFKGRPEWDDSERELCLAAALLHDLGHGPFSHSFEKVFHLDHEDFTRGIILGDTEVNQVLRKVSPGFPQDVAEVIAKTYKNKQVVSLISSQIDADRMDYLQRDAYYTGVSYGHFDMERILRVMRPREDQIVIKESGMHAVEDYIMSRYQMYWQVYFHPVTRSAEVILTKILHRAKQLHDEGYVFTHAPVHFYSIFEGKLTLEDYVKLDESIILYYFQAWEDEEDAILSDLCRRFINRQLFQYVEFNPNEEMSAYFELTSLFKEAGIDPSYYLVVDSSSDLPYDFYRPGEEEERLPIHLLTQNGQIKELSRQSAIVESISGKRRTDHKLYYPKDLICDGTKHPEAKMKIRQLLGLT
MGSDKIHHHHHHMCTRFVYNGKETIVGFNFDIDLSEWEHTVIAEKDRFFIGIKMSDNKYHSFHGINRNGNVGTLLYVHGNDNAQFCSNESCYTIADLTENFIKGNLSFDDSLEIVKKKKITYAPDTTMQAMFSDRNGRVLIIEPGIGYRLEKEKYSLITNYSILKPELTNPYVLSGDNRYEKAKDLLQGYGENFSISNAFDVLRSVRQEGLWATRVSFIYSVAKNKVYYVLNNDFKNIAEYQF
MGSDKIHHHHHHMDAIDLKRLSDFVRHRQNEDGGFAFCKPLPSTLAETFYAVSILTSIGEDVPRREKVVEFLKSRIQTEINSLFYTLHSLNLLGEDLPDYSSFLLKRLEGLKAERKYLLSDGGVTATYTFLQPNALRDAYMISTLLHLYNRDVPEETKMLVRRYRRETEFGVGYGVKKPNLEETFYASYILRDKAVISFVKSFESNGGFAKQPGGYPPYLEDTYYATSTLSLLSQRYSNPRTAEFIASLQNANGGFRRSIHGGISTLEDSYYAVEVLRRLEFR
MGSDKIHHHHHHMDDEIKKAITNYDDRPAMTKSTQKVFKNQQEMRTVLRDEVEVWQLIHQTDKQAEANIKPKLPPLAGARIMFRHFDFCLFSHDESERMAAYLPNDGIYTQNYRYLKRLIALMYPSYNLRQALDVIYHLEMMAPVRALTIDRYLVPVNNGIWNLHQHQLIPFSPKYVFTTKIATNYRDNATTPNIKGWTIDNWFDELACGDDEIVELLWEVINDCLNGNYTRKKAIFLFSELGNSGKGTFQELITNLVGMDNVGTLKVNEFDVRFRLAGLVGKTVCIGDDIAPDIYIKDSSNFNSVVTGDLVNIEFKGQDGYTSALRCTIVQSCNGLPNFHNKGGTMRRLVIVPFNNHFQGKGDNWSIRNDYITRKDVLEYVLYKALQLDFDKFSVPEVSKKALADFELDNNPLIGFKVSFFDKLKVDKVPTYYLYEYYKKYCSINGLKALGQSKFIRRFMTCVPLYEKKQAKLSATDINTLDVFKQQDEIIAWPREPLAGKKYNCIVQSTL
MGSDKIHHHHHHMDEIELRHILHMNPELSFKEYRTKETLRKAVIEIGYEKIIEVAGTGLVIEKKETEDPYVVLRADMDALPIKEETGWEFASRNEYMHACGHDFHMSALYGAMKRLRNVKKNFLFVFQPAEETGGGAKEVVDFLKDKYEIKAAVGFHVTDEYDAGTVASRPGVLFASATEFDVYFKGVPAHVAFAEKGKDALKAAVSFLGWLYNKKWNALVGVGKISGGRARNIVPDEIKLEGTIRSEALRITEEVISNMVKQLGELKEEMGVDFAVERGSVYPEVKVDQNLFETLRETCQRLGFSFVECDMKWTGEDFGYFSQVFPSLLFWFGVGEGERFGLHHPRFLPNDRYIPMAADLLAELAMVI
MGSDKIHHHHHHMDKAGKETPFWVQKTLAQLNAHEWEALCDRCGLCCLVKAEDEEAGDIYLTSLICPFFDLKTKVCSCYSQRKQQNPDCSTLTPMTVQTYDWLPDHCAYRLVAAGKPLPTWHPLISGRHDTVVNVMNYFKGVKIRHLQPHSDLEDYLILDPPEG
MGSDKIHHHHHHMDKATTPPEFERRRARAAQYLRMSTERQIYSIDNQRDAIRNYAEVMGYDIVATYEDPGRSGLSILGRPGLKRLIEDIESRRADFETVVVYDVSRWGRFQNTDESASYEYRCQRAGVRIEFCAELFVNDGSIGSDVLKAIKRSMAAEYSRMLSNRVFAGQSRIVKLGFSGGGPAGYGLRRLLVDGSGNPKAILHRDQRKGLASDRVVLVPGPENEVSTVRWIFNQFVKKGKTAVEIASALNARGLVTEFGRPWTGACVGTILASEKYVGNIVWNRISHRLLQNRLRNPPSAFVRADNVIEPLVTRALFDRAQAIRRARTYLRPDEELLADLTKLLKERGRLSSPIIDAAPGCHSASIYAHRFGSMNAAYQLIGYDGSANYRKLDIRRRLIQIRQQTIENLMSDIEGVGGSALYDPQTKIMRVNDEFSVAIWTAQYRMNVTGFPRWPFWKRGLIGPEVTILIRMESDNQTVRDFLIAPAHEAQSALHMLKADNGVRLDAFLFASLDPVVEMARREPMPANI
MGSDKIHHHHHHMDMTTYPIYLVGGSKGGVGKSFVALALADYLLRQNIRAALVETDTSNPDVMKAVQDEMRCIAYNLDDADGWIGLVNFCDEQRDAAIVVNTAARSQTGVEQFGATLAGALGELQRRLVVLWVINRQRDSLELLHAFSKTFPDAVTNVVRNGYFGPAEKFTLYQGSQLRRSIEARGHSLDFPDLADRVADELRSQRMSIRKAAETMHIGERVELMRWRSLCDAMFARVTVDG
MGSDKIHHHHHHMDNYLAEQILKNLPFTPTQSQDSAIRSLAKYLFDREPYSVFLLRGYAGTGKTQLIASVVQTILEQGADCELLAPTGRAAKVLTTYTRHQAYTIHRQIYQATAAGIEEGGAYRIRRSSGRSTVFIVDESSMIGNESVEPTPFGSGSLLNDLLAYVNETDGCRLILAGDMAQLPPVGSVVSPALDAGVMETSYGLRIHECTLTEVVRQQKESAILSLATSLRRLLSNGISEKIKLNIRDSGDVSAISGTELIEALDASFRTVGMDETIIVSYSNKRALAYNLGIRSQVLYYEEELIRGDRLVVTRNNYRYCDRRDKTDFVANGEIVEILRLGKRYELYGFRFADATISLVEQGREIEARLLLDGLTAETAGLTHAQRQKLYDAVAEDYNSMASIPARRKAIKEDAFFSALEVKYAYAITCHKAQGGQWKHVYVDMGMLSYLPHDEQLCRWLYTAVTRASERLFLVNTPKDMLP
